Measured values taken from the DeepSol protein solubility set.

test: soluble on expression in E. coli; label from the status in PepcDB or PDB records

Sequence	soluble on expression in E. coli
MSWQAYVDTSLLGTGKIDRAAIVSRAGDSVWAASAGFNLSPQEIQGLAAGFQDPPSMFGTGIILAGQKYITIRAEGRSIYGKLQKEGIICVATKLCILVSHYPETTLPGEAAKITEALADYLVGVGY	soluble
MMLKQAAKKALGLTSRQSTPWSVGILRTYHENVIDHYDNPRNVGSFDKNDPNVGTGLVGAPACGDVMKLQIKVDEKTGQIVDARFKTFGCGSAIASSSVATEWVKGKAMEDVLTIKNTEIAKHLSLPPVKLHCSMLAEDAIKAAVKDYKEKRVKTNGAAAAGETTQA	not soluble
MGSDKIHHHHHHMDKMLYTAASGASRIMEAQSIRANNLANAETTGFKADLERVKSMALPGVEASLSTRVLVQTQSNGFSQQSGEMNHTGRNLDMAIRDRGLFTVMVDGGEAYTRAGAMIADAEGQLTVNGRPVLGIDGPMVLPEHKDLFVGEDGTISVLPAEGGVIQEVGRLKMVNPELNELTKGADGLLYPIAAGVLAADDGVQVDSGYLESSNVQAVSELIASMDLSRQFEIQVKLMKSAEKLAEAGNRLIRNA	not soluble
MKRLLLSAAILSSMALFNVNAQELKTSADMKGSFKKNVVLEVFTAEWCGYCPGGKERIAKAIEMLDDEYKERVFQTFVHYNDGISKKWPRVGQLFIALDQTLGIPGFPTFSVCRMEKKGENLSIGAPIAIKNKIMKGFGDGTAPAEVNLKLTKGATPEDVCTATFTGKVDADLIGKPLMLTAYVLKNNMKPINPQNGAGDGYLHQHTVLMILSTDVKGDALNIAADGSFTIKKEFKLDGFEIKDTDVLAFVHHPMSNAENHSIINAGQESLDKAEPTATEQIVATPSVKAYVQNGKIVVEEEYSKMEVFNATGQLVKNESLVPGVYVVRITANGVMYFLKVLVP	not soluble
MGSDKIHHHHHHNYENINSNPYEAPDLSADGYALGSAMNNLAGCVVSPDVNTAQFTDCLLGGPLGGYFADSNAGFTETISNFNPKDDWSRVFLKSDKIIPTLYSNLTQVKLVSQNTNDPVPYAIAQVIKVAAMHRVTDAFGPIPYSQIGANGEIATPYDSQEVTYNTFFDELNAAIATLNENSNEQLVPTADYIYKGDVKKWIRFANSLKLRLAIRIAYANPVKAQQMAEEAVNPANGGVIESNADNATWNYFETSQNPIYVATRYNQVQTSDHGGVPCLTGGDTHAAADIICYMNGYKDNRREKFFTKSEWAGQDYVGMRRGIVIPELKTTGHKYSGVNIAPTSPLYWMNAAEVAFLRAEGQAVFNFSMGGTAESFYNQGIRLSFEQWGADGVEDYLKDDVNKPTAYTDPAGTNTYQNALSNITIKWNDSADKEEKQERIIVQKWIANWQLGNEAWADFRRTGYPKLIPVKENKSGGVVDSEKGARRMPYPLDEFVSNKANVEYAIANYLHGADNMATDVWWASKK	not soluble
IQLQQATQLHFSELGKLLDDLRVEKHINEVRLKLTPSFAFKWLVPKLESFQLENPEIQVQIFAEGALVNSDLKDYDVAIDYGLHPYRDHDAELILDEKLLPVMSPKYLEDHRWLKTPFGDQTSSMSANQWQAATLLHDAMPWEKATRDYEWLYWASAMGFDFKTDVGHFFNRTDMAMSAAEAGVGIAMARMALIEDELTTKRLVSPFAPIPANAGYYLIMNTRSQSTERFREWLLKQIESRR	not soluble
GPGSMGRQKSRNLWNDGEGTKSVCRPQQVTVAKGWRVTPDLLPAKPLAPRRRKYAPIRPNNRDAVAIPLGGQSYNPLDEEHQEALAKAVRQLSKKKLKDEKFVKMMTMGRDKKYTGNLSADKTWEEEVQETEPATAKTPKKKRTKTAPASTGASSSAPSSAPSPVTHNGNKAKHEKVAAAPAAVAKNGKTAKKQKKKTKKATAEEAKRAMTHRRHPKRGVVAKETDELDVLLAAHKATACKREVARQKRRAAKKANLAIKHYGRHYHTPLVLDVTPSDKLVGSLRHLSGGYVHPALERMKSLEERNLVPARMRHTYNKRKVLKPKGEVRVKREEFGVMPMTGF	soluble
MSLSLWQQCLARLQDELPATEFSMWIRPLQAELSDNTLALYAPNRFVLDWVRDKYLNNINGLLNTFCGADAPQLRFEVGTKPVTQTLKTPVHNVVAPAQTTTAQPQRVAPAARSGWDNVPAPAEPTYRSNVNVKHTFDNFVEGKSNQLARAAARQVADNPGGAYNPLFLYGGTGLGKTHLLHAVGNGIMARKPNAKVVYMHSERFVQDMVKALQNNAIEEFKRYYRSVDALLIDDIQFFANKERSQEEFFHTFNALLEGNQQIILTSDRYPKEINGVEDRLKSRFGWGLTVAIEPPELETRVAILMKKADENDIRLPGEVAFFIAKRLRSNVRELEGALNRVIANANFTGRAITIDFVREALRDLLALQEKLVTIDNIQKTVAEYYKIKIADLLSKRRSRSVARPRQMAMALAKELTNHSLPEIGDAFGGRDHTTVLHACRKIEQLREESHDIKEDFSNLIRTLSSLEHHHHHH	not soluble
MGHHHHHHSHMKGIMVQGTASDVGKSLICTALCRIFARRGYKVTPFKSQNMSNNSYITVEGLEIGRAQGIQAEAAMEEASVYMNPILLKPRNDREAEIVCFGQAVDTVSGVKYRDGFYKRGLEAIKQALATLSQSFDMVVIEGAGSPVEVNLNDRELVNMKVAELADVPVILVADIERGGVFASLYGTLELLQPNERKRVVGIIVNKFRGDPELFSSGVQWIEQHLGVPVLGVLPHLPGVRIEGEDSLSKGQVTSVLP	not soluble
MGSDKIHHHHHHMQDSMLSGLFGALTTEHRLNNIANNLANVNTNGYKRDVLAFKDTMALFAHDEIMEPMANVRSKKLFPEPLHVARPRIAVARTDFSQGSFHYTSDPLDLAISGNGFFKVRTPEGEFYTRNGHFRQTSDGQLVTMQGWPVLSEGGDINLPQGKNLQVASDGRIAVDGVDVGQLQVVTVSDLEGLEKLGGNLYRLREGSTAGEVPVGPDVIVSQGYIETSNVEVVNEMVNMIETQRQFEAYQKVMQTSDTVDRDAITKIGRGR	not soluble
SLNERVMMINANGVPIALYNRGHLGSGHFGAVIKASLDDGTLYAAKVPYSQIVPNADATSAELEAEISSARAELVKTIRQELDVRDKLVAKGLTLTETAEQYGLPLCQMTLTLPENKATVVRRGSRLVVVSKEVMLLPLIDGSPSNSLVQSQPPFLFQRAVAREAIIALAKLHELGFAHGDVKLNNMMIDVHGFGHMLDMGSVRPVDSCVSEEDKYYLRLWAPELAKSQHTSQQTCLKRGALDVWALGLAIFEFVCFNRLPYSLSNLPSSLWSRVEHLSRLRLSDFSAKDCNESDPAVMGIVAQFLNPNPEERPELPKFVSSYTFFRQAPGVTSHLTRIPTTELSSHR	not soluble
EVVKRDRIRNKDRPAMQLYQPGARSRNRLCPPDDSTKSGDSAAERKQESGISHRKEGGEE	soluble
MQENSPLLQLQNVGYLAGDAKILNNINFSLRAGEFKLITGPSGCGKSTLLKIVASLISPTSGTLLFEGEDVSTLKPEIYRQQVSYCAQTPTLFGDTVYDNLIFPWQIRNRQPDPAIFLDFLERFALPDSILTKNIAELSGGEKQRISLIRNLQFMPKVLLLDEITSALDESNKHNVNEMIHRYVREQNIAVLWVTHDKDEINHADKVITLQPHAGEMQEARYELA	not soluble
DRWIRPRGAFGGLPSLKSSFVLSESTVPGTNETVKTFLPYGSVINYYGYVKPGQAPDGLVDGNKKAYYLYVWIPAVIAEMGVRMISPTGEIGEPGDGDLVSDAFKAATPEEKSMPHWFDTWIRVERMSAIMPDQIAKAAKAKPVQKLDDDDDGDDTYKEERHNKYNSLTRIKIPNPPKSFDDLKNIDTKKLLVRGLYRISFTTYKPGEVKGSFVASVGLLFPPGIPGVSPLIHSNPEELQKQAIAAEESLKKAASDATK	soluble
MGSDKIHHHHHHMTERNSQDIGIQARFAEAEALGAHVYVLAAPLHNGSLPGALSVRRDHVACMLDGGADVQAVSPHLIYIPPSHFESARGWLERHGPASPCATILASPLPLAALAEHLKSFLRVCLPDGEPIVLAYWDPAILATLVGSAEDETLFVKGPVLSGEQRQAFLAPILRWTYWDRKGALRQIDWRQDRMPASAATLKPPLKLDQGQVDALTEASVPDGLLQHFSEHAPELLADVPERDRYGFVCRQIARARQHGIEGPGAWMDYCALAMRHGEAFDSHPDGVALLRTILPTASDRFSAS	not soluble
